The text below walks through data of PMC8136874, “The entry reaction of the plant shikimate pathway is subjected to highly complex metabolite-mediated regulation” (The Plant Cell, 2021).

The test system of data set [1] is O=C[C@H](O)[C@H](O)COP(=O)(O)O. Description: DHS enzymatic activity assay with recombinant AthDHS3. It is filed as biochemical, Arabidopsis thaliana. Conditions: other: various concentrations of the substrate; means ± SEM, n = 3; pH 7.4. The procedure:
Unless otherwise noted, DHS enzymatic activity was monitored as previously described ([Liu et al., 2008]), with several optimizations for high-throughput assays with eight-strip PCR tubes and a thermal cycler. The enzyme solution (7.7 µL) containing 50 mM HEPES (pH 7.4) was preincubated with an effector molecule(s) at room temperature for 10 min. For assays using recombinant protein and enzyme fraction isolated from plant leaves, 0.01–0.05 µg and approximately 50 µg of proteins were used, respectively. After adding 0.5 µL of 0.1 M DTT, the samples were further incubated at room temperature for 15 min. […] The enzyme reaction was started by adding 6.8 µL of the substrate solution, then incubated at 37°C for 20 min, and terminated by adding 30 µL of 0.6 M trichloroacetic acid. After brief centrifugation, 5 µL of 200 mM NaIO4 (sodium meta-periodate) in 9 N H3PO4 was added to oxidize the enzymatic product and incubate at 25°C for 20 min. To stop the oxidation reaction, 20 µL of 0.75 M NaAsO2 (sodium arsenite), which was dissolved in 0.5 M Na2SO4 and 0.05 M H2SO4, was immediately mixed. After 5 min of incubation at room temperature, one-third of the sample solution was transferred to a new tube to be mixed with 50 µL of 40 mM thiobarbituric acid and incubated at 99°C for 15 min in a thermal cycler. Developed pink chromophore was extracted by putting the final solutions with 600 µL of cyclohexanone in eight-strip solvent-resistant plastic tubes, mixing vigorously and centrifuging them at 4,500 × g for 3 min to separate water- and cyclohexanone-based layers. The absorbance of the pink supernatant was read at 549 nm with the microplate reader (Infinite 200 PRO, TECAN, Männedorf, Switzerland) to calculate DAHP production with the molar extinction coefficient at 549 nm (ε = 549 nm) of 4.5 × 10^4/M/cm. […]
For determination of kinetic parameters, the data of enzymatic activities measured in the presence of various concentration of substrates were calculated with the Michaelis–Menten equation in Graphpad Prism 6 (GraphPad Software, San Diego, CA, USA).

The test system of data set [2] is C=C(OP(=O)(O)O)C(=O)O. Put plainly: purified protein, by the assay type. Conditions: other: various concentrations of the substrate; means ± SEM, n = 3; pH 7.4.

Sequence of AthDHS3 (Arabidopsis thaliana) (chain, as listed by the source): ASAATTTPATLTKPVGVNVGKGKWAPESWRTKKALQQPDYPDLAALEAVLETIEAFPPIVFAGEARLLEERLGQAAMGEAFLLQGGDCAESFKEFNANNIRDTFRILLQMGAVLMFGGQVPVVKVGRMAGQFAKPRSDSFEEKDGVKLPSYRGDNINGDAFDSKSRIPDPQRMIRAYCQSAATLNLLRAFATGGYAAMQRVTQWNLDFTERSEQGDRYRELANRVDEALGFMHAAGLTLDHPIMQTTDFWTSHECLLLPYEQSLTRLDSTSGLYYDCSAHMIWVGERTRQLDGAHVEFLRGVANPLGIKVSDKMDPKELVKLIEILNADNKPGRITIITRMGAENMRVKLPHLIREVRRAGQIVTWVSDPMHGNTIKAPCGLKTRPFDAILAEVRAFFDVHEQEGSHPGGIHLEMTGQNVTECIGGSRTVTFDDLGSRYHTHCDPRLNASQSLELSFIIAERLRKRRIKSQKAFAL

Take AthDHS3 (Arabidopsis thaliana): in data set [1], the Km came to 1550 ± 276 µM, the kcat is 9.13 ± 0.28 s⁻¹ and the kcat/Km was 6350 ± 160 M⁻¹ s⁻¹. Also, in data set [2], the Michaelis constant (Km) came to 706 ± 124 µM, the kcat is 8.42 s⁻¹ and the specificity constant (kcat/Km) was 12400 M⁻¹ s⁻¹.

What is called Km is the concentration of substrate that gives half-maximal velocity. What is called kcat is the number of substrate molecules converted per active site and unit of time at saturation. What is called kcat/Km is the second-order rate constant that governs catalysis at low substrate concentration.
